This is an account of results in US7879792 (REGENTS OF THE UNIVERSITY OF MICHIGAN, dated 2011).

Experiment [1] concerns the target T1, human α-thrombin (human, UniProt P00734 328-622). As to the kind of experiment: cell-based or functional assay.
In experiment [2] the target is T1, human α-thrombin. As to the kind of experiment: inhibition of α-thrombin hydrolysis of Sar-Pro-Arg-paranitroanilide; Ki from Ki,app by the procedure of Bieth.

B1: rOicPaF(p-I) (D-Arg-Oic-Pro-D-Ala-Phe(p-I)) (peptide)
peptide: RXPAF
HELM: PEPTIDE1{[dR].[O=C([C@@H]1C[C@@H]2CCCC[C@@H]2N1[*:1])[*:2]].P.[dA].[O=C([C@H](Cc1ccc(I)cc1)N[*:1])[*:2]].[am]}$$$$V2.0; N-terminus assumed
SMILES: C[C@@H](NC(=O)[C@@H]1CCCN1C(=O)[C@@H]1C[C@@H]2CCCC[C@@H]2N1C(=O)[C@H](N)CCCNC(=N)N)C(=O)N[C@@H](Cc1ccc(I)cc1)C(N)=O
Take B1: in experiment [1], the “peptide concentration giving significant prolongation (p<0.05) of the APTT of normal human plasma” value was found to be 25 µM, the “peptide concentration giving significant prolongation (p<0.05) of the PT of normal human plasma” value was determined as 6.25 µM and the “peptide concentration giving significant prolongation (p<0.05) of the TCT of normal human plasma” value came out at 0.78 µM. The Ki in experiment [2] worked out at 6.4 µM.

B2: rOicPaF(p-Me) (D-Arg-Oic-Pro-D-Ala-Phe(p-Me)) (peptide)
peptide: RXPAF
HELM: PEPTIDE1{[dR].[O=C([C@@H]1C[C@@H]2CCCC[C@@H]2N1[*:1])[*:2]].P.[dA].[Cc1ccc(C[C@H](N[*:1])C(=O)[*:2])cc1].[am]}$$$$V2.0
SMILES: Cc1ccc(C[C@H](NC(=O)[C@@H](C)NC(=O)[C@@H]2CCCN2C(=O)[C@@H]2C[C@@H]3CCCC[C@@H]3N2C(=O)[C@H](N)CCCNC(=N)N)C(N)=O)cc1
notes: also called H-r-Oic-P-a-F(p-Me)-NH2
B2: in experiment [1], the “peptide concentration giving significant prolongation (p<0.05) of the APTT of normal human plasma” value was found to be 1.56 µM, the “peptide concentration giving significant prolongation (p<0.05) of the PT of normal human plasma” value turned out to be 1.56 µM and the “peptide concentration giving significant prolongation (p<0.05) of the TCT of normal human plasma” value was found to be 0.78 µM. This molecule registered a Ki in experiment [2] of 6.6 µM.

B3: rOicPsF(p-Me) (D-Arg-Oic-Pro-D-Ser-Phe(p-Me)) (peptide)
peptide: RXPSF
HELM: PEPTIDE1{[dR].[O=C([C@@H]1C[C@@H]2CCCC[C@@H]2N1[*:1])[*:2]].P.[dS].[Cc1ccc(C[C@H](N[*:1])C(=O)[*:2])cc1].[am]}$$$$V2.0; N-terminus assumed
SMILES: Cc1ccc(C[C@H](NC(=O)[C@@H](CO)NC(=O)[C@@H]2CCCN2C(=O)[C@@H]2C[C@@H]3CCCC[C@@H]3N2C(=O)[C@H](N)CCCNC(=N)N)C(N)=O)cc1
On to B3, for which, in experiment [1], the “peptide concentration giving significant prolongation (p<0.05) of the APTT of normal human plasma” value was 3.13 µM, the “peptide concentration giving significant prolongation (p<0.05) of the PT of normal human plasma” value came out at 1.56 µM and the “peptide concentration giving significant prolongation (p<0.05) of the TCT of normal human plasma” value came to 0.39 µM. The Ki in experiment [2] worked out at 6.7 µM.

B4: rOicPaF(p-Br) (D-Arg-Oic-Pro-D-Ala-Phe(p-Br)) (peptide)
peptide: RXPAF
HELM: PEPTIDE1{[dR].[O=C([C@@H]1C[C@@H]2CCCC[C@@H]2N1[*:1])[*:2]].P.[dA].[O=C([C@H](Cc1ccc(Br)cc1)N[*:1])[*:2]].[am]}$$$$V2.0; N-terminus assumed
SMILES: C[C@@H](NC(=O)[C@@H]1CCCN1C(=O)[C@@H]1C[C@@H]2CCCC[C@@H]2N1C(=O)[C@H](N)CCCNC(=N)N)C(=O)N[C@@H](Cc1ccc(Br)cc1)C(N)=O
Regarding B4, in experiment [1], the “peptide concentration giving significant prolongation (p<0.05) of the APTT of normal human plasma” value came to 12.5 µM, the “peptide concentration giving significant prolongation (p<0.05) of the PT of normal human plasma” value worked out at 6.25 µM and the “peptide concentration giving significant prolongation (p<0.05) of the TCT of normal human plasma” value came out at 0.78 µM. In experiment [2], this molecule yielded a Ki of 7.3 µM.
